Measured values published in PMC8481097.

Experiments:
Experiment in all cases: fluorescence polarisation
[1] = molecular target: TAMRA-labeled SARS-CoV-2 nsp1 C-K (wild type) (SARS-CoV-2) (UniProt P0DTD1)
[2] = molecular target: TAMRA-labeled SARS-CoV-2 nsp1 R124A/K125A (SARS-CoV-2) (UniProt P0DTD1)
[3] = molecular target: TAMRA-labeled SARS-CoV-2 nsp1 R99A (SARS-CoV-2) (UniProt P0DTD1)

Substance “purified ribosomes (crude 80S from HeLa cell lysate) (complex)” has a Kd [1] of 29.4 nM, a fold increase in KD against WT nsp1 [2] of 2.2 fold and a fold increase in KD against WT nsp1 [3] of 1.8 fold.
